Experimental data: patent US11713337B2, “Peptide, compositions and method for delivery of agents into cells and tissues” (priority 2019, dated 2023)
Where “and” joins values, the source holds several entries; their conditions need not be identical. Equal entries are not always repeated. Entries after “also recorded” stand apart in the source; their conditions may differ. Peptide text beside a SMILES is read from it. * marks the point of attachment. 5FAM = O=C1OC2(c3ccc(O)cc3Oc3cc(O)ccc32)c2ccc(C(=O)*)cc21

Tests used:
retina [1] = assay: Retinal penetration of FAM-labeled Nuc1 after intravitreal injection
Experimental: Intravitreal and subretinal injections: Mice were anesthetized by injecting intraperitoneally a cocktail mixture containing Ketamine (100 mg/kg, Phoenix™, St Joseph, Mo.) and Xylazine (10 mg/kg, Lloyed, Shenandoah, Iowa) followed by topical application of 0.5% proparacaine hydrochloride (Akorn Inc., Lake Forest, Ill., USA) for topical analgesia to the cornea. Mice were kept warm during anesthesia. lntravitreal and subretinal injections were performed using a 32-gauge needle and a 5μI glass syringe, as previously described (Cashman et al., 2015). […] Four hours post injection (as indicated), eyes were enucleated and fixed in 4% paraformaldehyde. […] Retinal cryosections were taken using a Micron 550 cryostat.
Four hours post injection, eyes of these mice were enucleated and fixed in 4% paraformaldehyde. Retinal cryosections were generated using a Micron 550 cryostat and sections were imaged using a fluorescent microscope.

retina [2] = conditions: 1 μg dexamethasone alone or with 1 μg Nuc1
Experimental: We hypothesized that Nuc1 may facilitate penetration of steroids into tissues, enabling a steroid to be applied in a reduced dosage without loss of efficacy. To test this hypothesis, we injected either 1 μg fluorescently labeled dexamethasone alone or fluorescently labeled dexamethasone in combination with 1 μg Nuc1.

[3] = system: alkali burn of the cornea; assay: Alkali burn of the cornea: corneal opacity and H+E histology; format: in vivo, C57BL/6 mice
From the text: (§1) Mice were kept warm during anesthesia. Alkali burn was induced in the cornea by applying 2 mm filter paper discs soaked with 1N sodium hydroxide (NaOH) on the central cornea of the right eye for 30 seconds. The filter paper was gently removed from the cornea and the cornea rinsed with phosphate buffered saline (PBS) 10 times to clear residual NaOH. The left eye was left unexposed to NaOH and served as a control. […] The treatments were applied topically once a day for seven days. Images of the eye were captured on day 7 using a digital camera. After 7 days, mice were sacrificed by CO2 inhalation, followed by cervical dislocation. The eyes were enucleated and fixed in 4% paraformaldehyde. Corneal cryosections were taken using a Micron 550 cryostat.
Histopathology: The eyes were harvested for histology 7 days post-treatment and fixed in Hartman's fixative. After 48 hours, the specimens were dehydrated through alcohol steps and embedded in paraffin. […] sections were cut at different planes, including the optic nerve region, and stained with Hematoxylin & Eosin (H&E). Imaging of stained sections was performed using an Olympus BX51 microscope using a Retiga 2000r camera.
On day 7, mice were sacrificed for imaging of corneas (FIG. 14A). […] Mice were scored for clinical opacity based on method described by Anderson et al.. […]

[4] = system: alkali burn of the cornea; assay: Alkali burn of the cornea: staining of corneal cryosections (isolectin, SMA, CD45, F4/80, TGF-β1, activated Caspase-3); format: in vivo, C57BL/6 mice
From the text: The filter paper was gently removed and the cornea was rinsed with phosphate buffered saline (PBS) 10 times. […] The treatments were applied topically once a day for seven days. After 7 days, mice were sacrificed by CO2 inhalation. Eyes were enucleated and fixed in 4% paraformaldehyde. Corneal cryosections were taken using a Micron 550 cryostat and stained for α-actin, a marker of fibrosis.
as §1
Immunochemistry: Cryosections were air dried for 10 minutes and washed in PBS for 5 minutes. They were subsequently incubated in 6% normal goat serum and PBS-Triton for 1 hour at room temperature for permeabilization and blocking. The slides were incubated with FITC-conjugated isolectin or with primary antibody against one of following: α-smooth muscle actin (SMA), glial fibrillary acidic protein (GFAP), CD45, transforming growth factor beta (TGF-β1), F4/80, transforming growth factor beta (TGF-β1) (Abcam; ab92486), or activated Caspase-3. This incubation was performed at 4° C. in a moist chamber overnight. For samples treated with antibodies, detection was performed by incubation with a secondary Cy3-conjugated goat anti-rabbit/anti-mouse antibody (Jackson lmmunoResearch, West Grove, Pa.) for 1 hour at room temperature. The slides were washed three times with PBS and mounted in Vectashield anti fade mounting medium containing DAPI to counterstain the nuclei. Imaging of stained sections was performed using an Olympus IX51 microscope and appropriate filters. Images were captured using a Retiga 2000r camera. The intensity of the antibody specific staining was quantified using ImageJ software.

[5] = system: alkali burn of the cornea; assay: Alkali burn of the cornea: multiplex ELISA of cytokines in corneal lysates; format: in vivo, C57BL/6 mice; conditions: 7 days topical treatment, Bioplex
From the text: as §1
Multiplex ELISA: Multiplex ELISA was performed to detect IL-6, IL-17, IL-10, IFN-G, TNF-α, and IL-1β using Bio-plex pro mouse cytokineTh17 A 6 plex group I (Bio-Rad, M6000007NY), as per the manufacturer's instructions. Briefly, alkali burn was induced as described above. Mice were sacrificed on day 7 and corneas were extracted. The corneas were dissected into small pieces and stored at −80° C. in Bioplex cell lysis buffer. Two corneas were pooled together for each sample and 50 μl of the lysate was used in duplicate for each sample. The samples were run using the Bio plex manager MP software and the data was analyzed using Bioplex manager 6.0.

[6] = system: alkali burn of the cornea; assay: Alkali burn of the cornea: TUNEL assay on corneal cryosections; format: in vivo, C57BL/6 mice; conditions: 7 days topical treatment
From the text: as §1
TUNEL assay: To detect cell death, the terminal deoxynucleotidyl transferase-mediated dUTP-biotin nick-end labeling (TUNEL) method was performed on corneal cryosections using the In Situ Death Detection Kit, TMR Red (Sigma), as per the manufacturer's instructions. The sections were imaged, as described above, and images used for quantification of TUNEL positive cells using ImageJ (FIJI version and plug in), as previously described.

[7] = system: gliosis in the retina after alkali burn; assay: Alkali burn of the cornea: GFAP staining of retina (gliosis); format: in vivo, C57BL/6 mice; conditions: topical to cornea for 7 days after alkali burn
From the text: as §1
Immunochemistry: Cryosections were air dried for 10 minutes and washed in PBS for 5 minutes. They were subsequently incubated in 6% normal goat serum and PBS-Triton for 1 hour at room temperature for permeabilization and blocking. The slides were incubated with FITC-conjugated isolectin or with primary antibody against one of following: α-smooth muscle actin (SMA), glial fibrillary acidic protein (GFAP), CD45, transforming growth factor beta (TGF-β1), F4/80, transforming growth factor beta (TGF-β1) (Abcam; ab92486), or activated Caspase-3. […] The intensity of the antibody specific staining was quantified using ImageJ software. […]

[8] = system: floxed stop tdTomato reporter in retina; assay: Cre recombinase uptake and gene editing in Ai9 reporter mice (tdTomato); format: in vivo; conditions: 4 micrograms Cre recombinase alone or with 1 microgram Nuc1, intravitreal
From the text: In these mice, a reporter tdTomato transgene expression cassette is turned on when a foxed stop codon is excised by Cre recombinase. […] The observation that Cre recombinase can enter cells by itself was surprising. However, the above assay is highly sensitive due to the fact that one gene editing event is substantially amplified through the continuous production of protein that accumulates in the cell.

## CC[C@H](C)[C@H](NC(=O)[C@H](CO)NC(=O)[C@H](C)NC(=O)c1ccc2c(c1)C(=O)OC21c2ccc(O)cc2Oc2cc(O)ccc21)C(=O)N[C@@H](CCCCN)C(=O)N[C@H](C(=O)N[C@@H](C)C(=O)N[C@H](C(=O)N[C@@H](CO)C(=O)N[C@@H](C)C(=O)NCC(=O)NCC(=O)N[C@@H](CC(=O)O)C(=O)N[C@@H](CCCCN)C(=O)N1CCC[C@H]1C(=O)N[C@@H](CCCNC(=N)N)C(=O)N[C@@H](CCCNC(=N)N)C(=O)O)C(C)C)C(C)C [FAM labeled Nuc1] (5FAM-ASIKVAVSAGGDKPRR-OH)
Retina [1]; mouse, in vivo
  localization in retina (fluorescence microscopy of cryosections): localized to all layers of the retina

## O=C(O)c1ccc2c(c1)C1(OC2=O)c2ccc(O)cc2Oc2cc(O)ccc21 [6-FAM, reference compound]
Retina [1]; 1 ug in 1 ul H2O intravitreal, four hours post injection, adult mice
  localization in retina (fluorescence microscopy of cryosections): unable to penetrate retina

## C[C@@H]1C[C@H]2[C@@H]3CCC4=CC(=O)C=C[C@]4(C)[C@@]3(F)[C@@H](O)C[C@]2(C)[C@@]1(O)C(=O)CO [dexamethasone]
Retina [2]
  uptake of fluorescently labeled dexamethasone into the retina: taken up into the retina

B1: decorin: human recombinant decorin, a small leucine rich proteoglycan (protein, UniProt P07585 31-359, looked up)
Decorin: DEASGIGPEVPDDRDFEPSLGPVCPFRCQCHLRVVQCSDLGLDKVPKDLPPDTTLLDLQNNKITEIKDGDFKNLKNLHALILVNNKISKVSPGAFTPLVKLERLYLSKNQLKELPEKMPKTLQELRAHENEITKVRKVTFNGLNQMIVIELGTNPLKSSGIENGAFQGMKKLSYIRIADTNITSIPQGLPPSLTELHLDGNKISRVDAASLKGLNNLAKLGLSFNSISAVDNGSLANTPHLRELHLDNNKLTRVPGGLAEHKYIQVVYLHNNNISVVGSSDFCPPGHNTKKASYSGVSLFSNPVQYWEIQPSTFRCVYVRSAIQLGNYK
[3]; 7 days topical treatment, relative to PBS
  corneal histology (H+E transverse sections): increase in thickness of the epithelium; also recorded: vacuolization was apparent
[3]; topical once daily for 7 days from 24 hours post alkali burn, PBS scored 4
  clinical opacity score (method of Anderson et al.): 2.8
[4]; 7 days topical treatment
  CD45 staining of cornea, images (leukocytes): reduction in CD45 and F4/80 staining in the anterior region of the stroma
  F4/80 staining of cornea, images (macrophages): reduction in CD45 and F4/80 staining in the anterior region of the stroma
  SMA staining of cornea, images (fibrosis): modest reduction of SMA staining
  TGF-β1 expression in cornea (antibody staining): lower expression of TGF-β1
  activated Caspase-3 staining of cornea, images, relative to PBS treated mice: considerable reduction in the staining for activated Caspase-3 in the stroma and endothelium
  isolectin (GSL I) staining of cornea, images (neovascularization): obvious reduction in isolectin staining
  reduction in CD45 staining / CD45-positive cells relative to corneas treated with PBS: 39.6%
  reduction in F4/80 staining relative to corneas treated with PBS: no significant reduction
  reduction in isolectin staining relative to PBS treated corneas (quantification): not significantly different to that of PBS treated corneas
[4]; 7 days topical treatment, reference PBS treated (implied)
  reduction in activated Caspase-3 staining (quantification of fluorescent signal): 51.5%
[4]; topical 0.5 μg decorin with or without 0.5 μg Nuc1 once a day for seven days, from 24 hours after NaOH
  reduction in α-actin (SMA) staining relative to PBS (fibrosis): 33.3% and 33.25%
[5]
  IFN-G expression in corneal lysate relative to PBS treated mice: reduction in expression
  IL-1β expression in corneal lysate: increased expression
  IL-6 expression in corneal lysate relative to PBS treated mice: reduction in expression
  IL-17 expression in corneal lysate relative to PBS treated mice: reduction in expression
  TNF-α expression in corneal lysate relative to PBS treated mice: reduction in expression
[6]
  TUNEL staining of cornea, images (cell death): considerable reduction in TUNEL staining in the corneal stroma
  reduction in TUNEL staining relative to PBS (quantification): 44.8%
[7]
  GFAP staining of retina (Muller cell activation, gliosis): reduced staining relative to the retinas of mice treated with PBS

B2: Cre recombinase: Cre recombinase protein, approximately 38 Kd (protein, UniProt P06956 1-343, looked up)
Recombinase cre: MSNLLTVHQNLPALPVDATSDEVRKNLMDMFRDRQAFSEHTWKMLLSVCRSWAAWCKLNNRKWFPAEPEDVRDYLLYLQARGLAVKTIQQHLGQLNMLHRRSGLPRPSDSNAVSLVMRRIRKENVDAGERAKQALAFERTDFDQVRSLMENSDRCQDIRNLAFLGIAYNTLLRIAEIARIRVKDISRTDGGRMLIHIGRTKTLVSTAGVEKALSLGVTKLVERWISVSGVADDPNNYLFCRVRKNGVAAPSATSQLSTRALEGIFEATHRLIYGAKDDSGQRYLAWSGHSARVGAARDMARAGVSIPEIMQAGGWTNVNIVMNYIRNLDSETGAMVRLLEDGD
[8]
  tdTomato positive Muller cells: almost no Muller cells expressing tdTomato
  tdTomato reporter expression in retina: detectable tdTomato expression
